According to patent US7749968B2, “Peptides for targeting the prostate specific membrane antigen” (The Johns Hopkins University, priority 2002, dated 2010):
Values belong to the compound of their own block, whether it stands above or below them.

How the values were obtained:
xPSM [1] = molecular target: T1, xPSM (Homo sapiens, UniProt Q04609); assay: NAAG hydrolysis (NAALADase) assay with purified xPSM; format: biochemical; conditions: 1, 10 and 100 micromolar; 30 nM NAAG substrate, 37° C., 10 minutes
T1 construct: Purified human xPSM (the extracellular portion of human PSMA); S-tag (cleaved yes); made in house; host or cells: Sf-9 insect cells infected with recombinant baculovirus; released from S-protein agarose by enterokinase
Source text: In another embodiment, the peptide compounds of the invention specifically enhance the enzymatic activity of PSMA. In another embodiment, peptide compounds of the invention may inhibit PSMA activity. Accordingly, the invention provides a method for assaying peptide compounds for the ability to modulate the activity of PSMA. This method is described in detail in Robinson, M. B. et al. (1987) J. Biol. Chem. 262:14498-506, incorporated herein by reference, as well as in Example 6 herein. Purified human xPSM (the extracellular portion of human PSMA) is incubated with a radiolabeled substrate, N-acetyl-L-aspartyl-L-[3,4-^3H]glutamate, plus the peptide compound being tested. Hydrolyzed substrate is then separated from intact substrate (e.g., by anion exchange chromatography) and quantitated to determine whether the test peptide compound was able to modulate PSMA activity.
N-acetyl-aspartyl-glutamate (NAAG) hydrolysis was performed essentially as previously described (Robinson, M. B. et al. (1987) J. Biol. Chem. 262:14498-506, incorporated herein by reference). In short, 65 ng purified xPSM was resuspended in NAALADase Buffer (50 mM Tris, pH 7.4, 0.5% Triton X-100) and incubated in the presence of peptides or inhibitors (1, 10, and 100 micromolar), along with the radiolabeled substrate N-acetyl-L-aspartyl-L-[3,4-^3H]glutamate (NEN Life Science Products, Boston, Mass.) at 30 nM. Reactions were run at 37° C. for 10 minutes. The reaction was then stopped by the addition of an equal volume of ice-cold 100 mM sodium phosphate, 2 mM EDTA. Products were separated from intact substrate using AG 1-X8 Formate resin (BioRad Laboratories, Hercules, Calif.) anion exchange chromatography. The reaction product, tritiated-glutamate, was eluted with 1M sodium formate and quantitated by scintillation counting. Intact NAAG remained in the column resin. Experiments were completed in triplicate and have been repeated. The data represents six data points from two experiments. Experiments were designed to allow 20% or less of the total substrate to be cleaved.

xPSM [2] = molecular target: T1, xPSM; assay: Final phage display round on xPSM bound to microtiter plates; format: binding
Source text: In addition to phage library partitioning by cell binding, a final round of binding was completed on xPSM (Tag-xPSM digested with enterokinase) bound to plastic microtiter plates. This final round was used to ensure that those peptides identified in the LNCaP screen were targeting PSMA and not another unknown surface protein.
Multiple individual phage from rounds three of LNCaP binding and the final round of xPSM binding were isolated, amplified, and sequenced. […] Two sequences are highly represented and are found in both cell and purified protein backgrounds.

Tag-xPSM [3] = molecular target: T2, Tag-xPSM (Homo sapiens, UniProt Q04609); assay: Stringent Tag-xPSM phage display, round 4 acid elution pool; format: binding; conditions: pH 2.2 pool
T2 construct: made in house; host or cells: Sf-9 insect cells infected with recombinant baculovirus; protein harvested from the media
Procedure: As described above in Example 1, Tag-xPSM was used as a target for the in vitro selection of a commercially available cysteine-constrained heptapeptide phage library. For the initial round, 14 micrograms of S-protein-agarose immobilized Tag-xPSM was incubated with 2×10^11 PFU for 30 minutes at room temperature while rotating. Weakly bound phage were then washed off with three 5 minute rotating washes. One phage pool, referred to herein as the “pH 2.2 pool”, was eluted for ten minutes in pH 2.2 glycine buffer followed by neutralization in Tris buffer. Those phage still bound to Tag-xPSM were then eluted for one hour in 30 mM EDTA-Tris buffer. This pool is referred to herein as the “EDTA pool”. These two pools where then carried separately for the next three rounds. Stringency was increased in each round by changing Tag-xPSM substrate background, decreasing binding time, or increasing washing time (Table 3).
Twelve individual phage from each elution condition for rounds two, three, and four of Tag-xPSM phage display were isolated, amplified, and sequenced. All clones sequenced from rounds 2 and 3 were unique (Tables 4 and 5).

Tag-xPSM [4] = molecular target: T2, Tag-xPSM; assay: Tag-xPSM phage display selection (agarose/cellulose), sequencing of selected phage; format: binding
Procedure: 100 μl of S-protein agarose (2× in RPMI 1640+1% Fetal Bovine Serum (FBS) and 100 μl of CBind Resin (10 mg/ml in RPMI 1640+1% FBS) without fusion protein were used to negatively select the original phage display library. 2×10^11 plaque forming units (PFU) of 1.29×10^9 different sequence phage were incubated with each aliquot of resin for 1 hr at 37° C., while rotating. The S-tag agarose was pelleted and supernatant saved as the agarose counter-selected pool. The cellulose resin was transferred onto 200 μl of 9:1 dibutyl phthalate:cyclohexane and the resin pelleted through the organic phase. The aqueous supernatant was saved as the cellulose counter-selected pool. Each counter selected pool was then added to tag-xPSM agarose or cellulose resin and incubated for 1 hr at 37° C., while rotating. The tag-xPSM agarose was pelleted and washed three times in RPMI 1640+1% FBS. The agarose pellet was then saved for phage isolation. The Tag-xPSM cellulose was transferred onto 200 μl of 9:1 dibutyl phthalate:cyclohexane and the resin pelleted through the organic phase. The tube was then snap frozen in liquid nitrogen to isolate the resin pellet. Over 75% of Tag-xPSM remained bound to the cellulose resin through these conditions. The resulting phage-bound tag-xPSM agarose and tag-xPSM cellulose were then resuspended in 200 μl of log phage ER2738 cells and phage allowed to infect 1 hour at room temperature. A small aliquot was taken at this time to quantitate the number of phage bound per round of selection. The remaining PSMA bound phage was then amplified, tittered, and applied to the next round of phage display. There was only one counter-selection round, followed by a total of five positive selection rounds, applying between 10^10 to 10^11 PFU per round. The final round of selection included cross-selections, where selected phage pools from one PSMA background where applied to the other. Individual phage were isolated and sequenced from rounds three through five.
Individual phage plaques were amplified for 5 hours in ER2738 cells at 37° C. Amplified supernatant was incubated 1:1 with PEG/NaCl buffer (20% PEG 8000, 2.5 M NaCl) for 10 minutes at room temperature. Phage were microfuged 10 minutes at 20,000 g, 4° C. The phage pellet was suspended in 100 μl Iodide buffer (10 mM Tris-HCl, pH 8.0, 1 mM EDTA, 4M NaI). Single stranded DNA (ssDNA) was precipitated with 250 μl of 100% ethanol, pelleted, and washed in 70% ethanol. Each ssDNA pellet was suspended in 30 μl 10 mM Tris, pH 7.4. Each phage was sequenced using the Amersham DYE ET mix, by incubating 6 μl ssDNA, 1 μl of 5 μM-96 pill Sequencing Primer ([…]; SEQ ID NO:108), and 8 μl of DYE ET mix in a 96 well PCR plate and amplified by 30 cycles of 95° C. for 20 seconds, 50° C. for 15 seconds, and 60° C. for 1 minute. Sequencing reaction products were spun through G50-fine Sephadex column plates, prepared on Millipore-multiscreen plates. Products were sequenced and analyzed on the MegaBACE capillary sequencer. All sequences, minus the flanking cysteines, were aligned using the Baylor College of Medicine Clustal W1.8 Global Progressive Alignment (available online) with data presented by Boxshade 3.21 software (available online through the Swiss Institute for Bioinformatics).
2×10^11 plaque-forming units (PFU) of the library was incubated with each aliquot of resin for one hour at 37° C., while rotating. The S-tag agarose was pelleted and the supernatant saved as the agarose counter-selected pool. The cellulose resin was transferred onto a 9:1 ratio of dibutyl phthalate:cyclohexane and the resin centrifuged through the organic phase. The aqueous supernatant was saved as the cellulose counter-selected pool. Each counter selected pool was then added to tag-xPSM agarose or cellulose resin, respectively, and incubated for one hour at 37° C., while rotating (see FIG. 2). The Tag-xPSM agarose was pelleted, washed, and saved for phage isolation. […]

T2 sequence (Q04609 44-750 limits assumed): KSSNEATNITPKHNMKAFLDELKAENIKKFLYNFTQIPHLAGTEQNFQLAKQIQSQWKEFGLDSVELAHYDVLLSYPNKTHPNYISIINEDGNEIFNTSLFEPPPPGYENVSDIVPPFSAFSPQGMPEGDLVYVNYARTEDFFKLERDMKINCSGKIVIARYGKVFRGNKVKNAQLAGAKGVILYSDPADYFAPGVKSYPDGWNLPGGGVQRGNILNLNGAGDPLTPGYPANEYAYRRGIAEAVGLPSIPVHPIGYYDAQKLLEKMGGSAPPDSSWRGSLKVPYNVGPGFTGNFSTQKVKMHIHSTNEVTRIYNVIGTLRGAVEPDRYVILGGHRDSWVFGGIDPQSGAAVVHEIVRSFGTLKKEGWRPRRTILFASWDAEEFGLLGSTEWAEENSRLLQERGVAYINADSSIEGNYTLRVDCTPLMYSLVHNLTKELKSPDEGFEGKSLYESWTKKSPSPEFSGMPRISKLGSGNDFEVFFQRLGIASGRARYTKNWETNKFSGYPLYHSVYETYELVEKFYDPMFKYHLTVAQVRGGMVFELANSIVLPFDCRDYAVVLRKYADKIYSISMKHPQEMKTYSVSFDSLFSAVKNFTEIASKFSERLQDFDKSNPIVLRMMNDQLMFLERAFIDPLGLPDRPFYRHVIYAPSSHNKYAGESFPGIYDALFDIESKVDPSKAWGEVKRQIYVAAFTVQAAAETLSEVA
T1 sequence (Q04609 44-750 limits assumed): as above

Compound: N[C@@H](Cn1oc(=O)[nH]c1=O)C(=O)O [quisqualic acid, reference compound]
Effect on PSMA enzymatic activity (xPSM [1]): inhibited

Compound: CERNTYRFC [SEQ ID NO:33]
Number of times sequence was found, Round 1 xPSM (xPSM [2]): 0

Compound: CGSAARNWC [SEQ ID NO:32]
Number of times sequence was found, Round 1 xPSM (xPSM [2]): 0

Compound: CLAAPTGKC [SEQ ID NO:30]
Number of times sequence was found, Round 1 xPSM (xPSM [2]): 12

Compound: CNKAALGTC [SEQ ID NO:31]
Number of times sequence was found, Round 1 xPSM (xPSM [2]): 1

Compound: CQKHHNYLC [SEQ ID NO:1]
Number of times sequence was found, Round 3 (Tag-xPSM [4]; Agarose): 0/0
Number of times sequence was found, Round 4 (Tag-xPSM [4]; Agarose): 0/0
Number of times sequence was found, Round 5 (Tag-xPSM [4]; Agarose): 0
Number of times sequence was found, Round 3 (Tag-xPSM [4]; Cellulose): 0/0
Number of times sequence was found, Round 4 (Tag-xPSM [4]; Cellulose): 0/0
Number of times sequence was found, Round 5 (Tag-xPSM [4]; asterisk: cross-selected, agarose pool selected on cellulose (final resin)): 12
Effect on PSMA enzymatic activity (xPSM [1]): enhanced

Compound: CTLVPHTRC [SEQ ID NO:3]
Number of times sequence was found, Round 3 (Tag-xPSM [4]; Agarose): 0/0
Number of times sequence was found, Round 4 (Tag-xPSM [4]; Agarose): 13/13
Number of times sequence was found, Round 5 (Tag-xPSM [4]; Agarose): 0
Number of times sequence was found, Round 3 (Tag-xPSM [4]; Cellulose): 0/0
Number of times sequence was found, Round 4 (Tag-xPSM [4]; Cellulose): 13/13
Number of times sequence was found, Round 5 (Tag-xPSM [4]; Cellulose): 2
Effect on PSMA enzymatic activity (xPSM [1]): enhanced

Compound: CTSNNSAIC [SEQ ID NO:27]
Number of times sequence was found, Round 3 (Tag-xPSM [4]; Agarose): 0
Number of times sequence was found, Round 4 (Tag-xPSM [4]; Agarose): 0/0
Number of times sequence was found, Round 5 (Tag-xPSM [4]; Agarose): 0/0
Number of times sequence was found, Round 3 (Tag-xPSM [4]; Cellulose): 1
Number of times sequence was found, Round 4 (Tag-xPSM [4]; Cellulose): 0/0
Number of times sequence was found, Round 5 (Tag-xPSM [4]; Cellulose): 0/0

Compound: CTYNPSRWC [SEQ ID NO:29]
Number of times sequence was found, Round 1 xPSM (xPSM [2]): 7

Further lines, results first:

Number of times sequence was found, Round 1 xPSM (xPSM [2]): 0
Compound: CKSGEVNYC [SEQ ID NO:34]

Share of the round 4 acid elution pool (Tag-xPSM [3]): 83%
Compound: CLNTAPLAC [SEQ ID NO:60]

Number of times sequence was found, Round 1 xPSM (xPSM [2]): 1
Compound: CPQPASRQC [SEQ ID NO:36]

Number of times sequence was found, Round 1 xPSM (xPSM [2]): 0
Compound: CTNPNMHHC [SEQ ID NO:35]
